# Assay results reported in PMC6321479, “The C Terminus of the Ribosomal-Associated Protein LrtA Is an Intrinsically Disordered Oligomer” (International Journal of Molecular Sciences, 2018).
# Key:
# [1] = target: the molecule itself; assay: SEC; Superose 12 10/300 GL, pH 8.0 (50 mM Tris), 0.250 M NaCl, 0.8 mL/min; C-LrtA loaded at 30 uM (protomer), 100 uL
# [2] = target: the molecule itself; assay: SEC; Superose 12 10/300 GL, pH 8.0 (50 mM Tris), 0.250 M NaCl, 0.8 mL/min; C-LrtA loaded at 500 uM (protomer), 100 uL
# [3] = target: the molecule itself; assay: cross-linking; glutaraldehyde, pH 7.2 (50 mM Tris), 120 uM C-LrtA (protomer), 200 uL, several reaction times, SDS-PAGE
# [4] = target: the molecule itself; assay: native gel or EMSA; blue-native PAGE, linear 4-16% gradient gel, 20 ug C-LrtA with Coomassie Brilliant blue G, 4 °C; increasing amounts of SDS also tested
protein,measurement,setting,value
"C-terminal region of LrtA (C-LrtA, residues 102-191) with N-terminal His-tag (domain or fragment, Synechocystis sp. PCC 6803, LrtA of Synechocystis sp; PCC 6803 (191 residues), residues 102-191; whole construct 109 residues with the His-tag, 12,449.89 Da; Cloned in pHTP1 by NZytech; also called isolated C-LrtA; C-terminal half of LrtA protein; source: E. coli BL21 (DE3), purified (Ni-resin IMAC, Hi-Trap Mono Q)) QHGNVKTSEIVEDKPVEENLIGDRAPELPSEVLRMKYFAMPPMAIEDALEQLQLVDHDFYMFRNKDTDEINVIYIRNHGGYGVIQPHQAS",stoichiometry N,[1],~2
same,stoichiometry N,[2],~8
same,stoichiometry N,[3],2
same,stoichiometry N,[4],5
